{
  "source": "paper PMC3672285",
  "about": "(RNA Biology, 2013)",
  "binders": {"B1": {"name": "His-tagged Csl4 of S. solfataricus (natural protein, UniProt Q980J9 1-189, looked up)", "chain": "MRTQGELTLPGEELAVIEEFMTGDGTYEQNGIVRAAVVGKIFYDMLNRKSNVLGFKKIIFQHLKKAKYVIGIVNSIKEDSALVSIVGIEERGLASPISAYLHISQISNKKINNVTDAIKIGDVIKAKLLSYTFPLALTIKMKDLGVIYARCSRCGYLLIKQDENNLKCQRCGNIEQRKIGSYMVKKGGN"}, "B2": {"name": "Strep-tagged Csl4 of S. solfataricus (natural protein, UniProt Q980J9 1-189, looked up)", "chain": "MRTQGELTLPGEELAVIEEFMTGDGTYEQNGIVRAAVVGKIFYDMLNRKSNVLGFKKIIFQHLKKAKYVIGIVNSIKEDSALVSIVGIEERGLASPISAYLHISQISNKKINNVTDAIKIGDVIKAKLLSYTFPLALTIKMKDLGVIYARCSRCGYLLIKQDENNLKCQRCGNIEQRKIGSYMVKKGGN"}, "B3": {"name": "His-tagged DnaG of S. solfataricus (natural protein, UniProt P95980 1-406, looked up)", "chain": "MSFQMKYDIRLRFEVEGIVEKTDVIGAIFGQTENLFGDEFDLRELQDKGRLGRIIVEVKTKGGKSEGEIIIPSNLDRIETALIAAMVESVDKVGPYNSKFELIEIEDIRAEKLKKIIERAKGILSSWSKEKSLDIKEVINEISSAVKVGEITEYGPERLPAGPDVDKDPNLIIVEGRADVINLLRYGYKNVIAVEGATSRIPETLINLSKMKKTVIAFLDGDHGGDLILKELLSNNVKIDFVARAPIGREVEELTGKEIAKALSNMMPLTQYLKKVQEAEQAIAKNVIAKEEKPIQSETTQQVVQITLPQNILEEIKKLPGTLEGVLYDNNWNLIEKVQVRDIIPKLEAYEDNKVAYIIFDGVITQRLLDLASQKNIKMIIGARIGGINKRPQNVDILTFTDIISS"}, "B4": {"name": "His-tagged Rrp4 of S. solfataricus (natural protein, UniProt Q9UXC4 1-249, looked up)", "chain": "MNMSQSQKIVLQPRSIVVPGELLAEGEFQIPWSPYILKINSKYYSTVVGLFDVKDTQFEVIPLEGSFYYPKINDIVIGLVEDVEIYGWVVDIKAPYKAYLPASNLLGRSINVGEDLRRYLDVGDYVIARIENFDRSIDPVLSVKGKDLGRVSNGIVIDIMPVKVPRVIGKNKSMYETLTSKSGCSIFVANNGRIWATCPSRFSEEILIEAIRKIENESHIKGLTDRIKQFIEEKLGERNASSGETKTNS"}, "B5": {"name": "His-tagged Rrp41 of S. solfataricus (natural protein, UniProt Q9UXC2 1-248, looked up)", "chain": "MREMLQVERPKLILDDGKRTDGRKPDELRSIKIELGVLKNADGSAIFEMGNTKAIAAVYGPKEMHPRHLSLPDRAVLRVRYHMTPFSTDERKNPAPSRREIELSKVIREALESAVLVELFPRTAIDVFTEILQADAGSRLVSLMAASLALADAGIPMRDLIAGVAVGKADGVIILDLNETEDMWGEADMPIAMMPSLNQVTLFQLNGSMTPDEFRQAFDLAVKGINIIYNLEREALKSKYVEFKEEGV"}},
  "key": {"[1]": {"target": "T1, Rrp41-Rrp42 hexamer, His-tagged subunits (S. solfataricus, UniProt Q9UXC2 1-248; Q9UXC0 1-275)", "T1 sequence (looked up) 1": "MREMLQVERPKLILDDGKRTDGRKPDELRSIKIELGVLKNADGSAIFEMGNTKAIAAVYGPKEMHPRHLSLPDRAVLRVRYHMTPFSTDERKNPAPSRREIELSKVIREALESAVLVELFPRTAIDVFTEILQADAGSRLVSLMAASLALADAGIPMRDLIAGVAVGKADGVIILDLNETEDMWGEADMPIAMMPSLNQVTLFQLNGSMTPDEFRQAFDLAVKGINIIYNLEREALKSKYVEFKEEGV", "T1 sequence (looked up) 2": "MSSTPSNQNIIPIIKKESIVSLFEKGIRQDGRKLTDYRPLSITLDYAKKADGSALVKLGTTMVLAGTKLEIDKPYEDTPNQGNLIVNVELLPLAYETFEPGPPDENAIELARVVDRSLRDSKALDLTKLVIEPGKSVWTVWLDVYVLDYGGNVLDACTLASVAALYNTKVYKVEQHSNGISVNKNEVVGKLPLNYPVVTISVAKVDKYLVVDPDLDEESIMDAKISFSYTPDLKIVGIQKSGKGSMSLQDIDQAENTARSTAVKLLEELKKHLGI", "test": "co-IP"}, "[2]": {"target": "B4", "test": "pull-down"}, "[3]": {"target": "T2, Strep-Csl4-exosome (Strep-Csl4, His6-Rrp41, His6-Rrp42) (S. solfataricus, UniProt Q9UXC2 1-248; Q9UXC0 1-275; Q980J9 1-189)", "T2 sequence (looked up) 1": "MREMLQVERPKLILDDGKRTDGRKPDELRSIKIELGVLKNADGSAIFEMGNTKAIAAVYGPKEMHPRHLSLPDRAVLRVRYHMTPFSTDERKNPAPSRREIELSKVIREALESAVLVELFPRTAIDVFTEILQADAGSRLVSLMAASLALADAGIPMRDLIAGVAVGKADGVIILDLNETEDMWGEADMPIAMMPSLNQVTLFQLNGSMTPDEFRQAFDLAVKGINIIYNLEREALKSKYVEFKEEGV", "T2 sequence (looked up) 2": "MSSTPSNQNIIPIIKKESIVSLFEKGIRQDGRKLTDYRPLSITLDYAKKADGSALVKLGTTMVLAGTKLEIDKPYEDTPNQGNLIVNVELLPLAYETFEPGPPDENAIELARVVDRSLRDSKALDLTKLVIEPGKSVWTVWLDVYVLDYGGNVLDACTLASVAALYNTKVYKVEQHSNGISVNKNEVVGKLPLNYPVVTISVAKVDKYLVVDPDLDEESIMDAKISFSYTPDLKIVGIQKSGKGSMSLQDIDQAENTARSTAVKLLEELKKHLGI", "T2 sequence (looked up) 3": "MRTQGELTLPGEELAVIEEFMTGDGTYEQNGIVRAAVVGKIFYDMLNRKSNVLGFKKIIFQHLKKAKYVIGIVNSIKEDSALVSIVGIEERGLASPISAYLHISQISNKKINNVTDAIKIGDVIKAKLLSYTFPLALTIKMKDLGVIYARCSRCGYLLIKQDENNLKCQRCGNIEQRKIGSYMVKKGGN", "test": "pull-down"}, "[4]": {"target": "T3, His-tagged Rrp42 of S. solfataricus (S. solfataricus, UniProt Q9UXC0 1-275)", "T3 sequence (looked up)": "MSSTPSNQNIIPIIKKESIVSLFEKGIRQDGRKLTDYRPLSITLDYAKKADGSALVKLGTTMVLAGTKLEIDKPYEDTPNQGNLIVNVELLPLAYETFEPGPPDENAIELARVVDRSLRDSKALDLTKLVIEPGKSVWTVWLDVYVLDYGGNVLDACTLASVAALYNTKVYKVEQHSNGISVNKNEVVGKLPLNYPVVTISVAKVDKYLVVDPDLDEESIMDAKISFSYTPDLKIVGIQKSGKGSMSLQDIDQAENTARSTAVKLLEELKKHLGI", "test": "SEC"}},
  "data": [
    {"binder": "B1", "values": [
      {"measurement": "binding result", "setting": "[1]", "result": "binds"}
    ]},
    {"binder": "B2", "values": [
      {"measurement": "binding result", "setting": "[2]", "result": "binds"}
    ]},
    {"binder": "B3", "values": [
      {"measurement": "binding result", "setting": "[3]", "result": "binds"}
    ]},
    {"binder": "B4", "values": [
      {"measurement": "binding result", "setting": "[1]", "result": "binds"}
    ]},
    {"binder": "B5", "values": [
      {"measurement": "binding result", "setting": "[4]", "result": "binds"}
    ]}
  ]
}
